# According to US20220381793A1, “COMPOSITIONS AND METHODS FOR IDENTIFYING MHC-II BINDING PEPTIDES” (priority 2021, published 2022):
# Target: “empty” DR4-LZ (DRA*01:01/DRB1*04:01 ectodomains with Jun/Fos leucine zippers, non-covalent heterodimer displayed on yeast through Aga2p) (human)
substance,measurement,value
S862-888 (printed “5862-888”) (from UniProt P0DTC2 862-878) (peptide),% competition,75%
